{
  "source": "patent US20230220589A1",
  "binders": {"B1": {"name": "engineered M44-A binder (SEQ ID NO: 42) (designed binder, not shown: small tags and cut ends; large carriers)", "chain": "QVSVQPNFQQDKFLGRWFVAGLASNSSWDREKVAALSGAKMVVAPATDGGLNVTRTMLRKNQCETYTGLLQPAGSLGSYSWRSPHPGSTGSESVVETDYDQYALVYGQGSKGPGEDLRAAALWSRTQTPRAELKEKFTAFSKAQGFTEDTIVFLPQTDKCMTEQ"}},
  "key": {"[1]": {"molecular_target": "M44-modified F NTAA target peptides (M44-F-P2-peptide)", "assay": "encoding assay; P2 A"}, "[2]": {"molecular_target": "M44-modified L NTAA target peptides (M44-L-P2-peptide)", "assay": "encoding assay; P2 A"}, "[3]": {"molecular_target": "M44-modified A NTAA target peptides (M44-A-P2-peptide)", "assay": "encoding assay; P2 F"}, "[4]": {"molecular_target": "M44-modified D NTAA target peptides", "assay": "encoding assay; P2 F"}, "[5]": {"molecular_target": "M44-modified E NTAA target peptides", "assay": "encoding assay; P2 F"}, "[6]": {"molecular_target": "M44-modified F NTAA target peptides (M44-F-P2-peptide)", "assay": "encoding assay; P2 F"}, "[7]": {"molecular_target": "M44-modified G NTAA target peptides (M44-G-P2-peptide)", "assay": "encoding assay; P2 F"}, "[8]": {"molecular_target": "M44-modified H NTAA target peptides", "assay": "encoding assay; P2 F"}, "[9]": {"molecular_target": "M44-modified I NTAA target peptides (M44-I-P2-peptide)", "assay": "encoding assay; P2 F"}, "[10]": {"molecular_target": "M44-modified L NTAA target peptides (M44-L-P2-peptide)", "assay": "encoding assay; P2 F"}, "[11]": {"molecular_target": "M44-modified M NTAA target peptides", "assay": "encoding assay; P2 F"}, "[12]": {"molecular_target": "M44-modified N NTAA target peptides", "assay": "encoding assay; P2 F"}, "[13]": {"molecular_target": "M44-modified P NTAA target peptides", "assay": "encoding assay; P2 F"}, "[14]": {"molecular_target": "M44-modified Q NTAA target peptides", "assay": "encoding assay; P2 F"}, "[15]": {"molecular_target": "M44-modified S NTAA target peptides", "assay": "encoding assay; P2 F"}, "[16]": {"molecular_target": "M44-modified T NTAA target peptides", "assay": "encoding assay; P2 F"}, "[17]": {"molecular_target": "M44-modified V NTAA target peptides", "assay": "encoding assay; P2 F"}, "[18]": {"molecular_target": "M44-modified W NTAA target peptides", "assay": "encoding assay; P2 F"}, "[19]": {"molecular_target": "M44-modified Y NTAA target peptides (M44-Y-P2-peptide)", "assay": "encoding assay; P2 F"}, "[20]": {"molecular_target": "M44-modified A NTAA target peptides (M44-A-P2-peptide)", "assay": "encoding assay; P2 L"}, "[21]": {"molecular_target": "M44-modified D NTAA target peptides", "assay": "encoding assay; P2 L"}, "[22]": {"molecular_target": "M44-modified E NTAA target peptides", "assay": "encoding assay; P2 L"}, "[23]": {"molecular_target": "M44-modified F NTAA target peptides (M44-F-P2-peptide)", "assay": "encoding assay; P2 L"}, "[24]": {"molecular_target": "M44-modified G NTAA target peptides (M44-G-P2-peptide)", "assay": "encoding assay; P2 L"}, "[25]": {"molecular_target": "M44-modified H NTAA target peptides", "assay": "encoding assay; P2 L"}, "[26]": {"molecular_target": "M44-modified I NTAA target peptides (M44-I-P2-peptide)", "assay": "encoding assay; P2 L"}, "[27]": {"molecular_target": "M44-modified L NTAA target peptides (M44-L-P2-peptide)", "assay": "encoding assay; P2 L"}, "[28]": {"molecular_target": "M44-modified M NTAA target peptides", "assay": "encoding assay; P2 L"}, "[29]": {"molecular_target": "M44-modified N NTAA target peptides", "assay": "encoding assay; P2 L"}, "[30]": {"molecular_target": "M44-modified P NTAA target peptides", "assay": "encoding assay; P2 L"}, "[31]": {"molecular_target": "M44-modified Q NTAA target peptides", "assay": "encoding assay; P2 L"}, "[32]": {"molecular_target": "M44-modified S NTAA target peptides", "assay": "encoding assay; P2 L"}, "[33]": {"molecular_target": "M44-modified T NTAA target peptides", "assay": "encoding assay; P2 L"}, "[34]": {"molecular_target": "M44-modified V NTAA target peptides", "assay": "encoding assay; P2 L"}, "[35]": {"molecular_target": "M44-modified W NTAA target peptides", "assay": "encoding assay; P2 L"}, "[36]": {"molecular_target": "M44-modified Y NTAA target peptides (M44-Y-P2-peptide)", "assay": "encoding assay; P2 L"}, "[37]": {"molecular_target": "M44-modified E NTAA target peptides", "assay": "encoding assay; P2 Q"}, "[38]": {"molecular_target": "M44-modified A NTAA target peptides (M44-A-P2-peptide)", "assay": "encoding assay; P2 Y"}, "[39]": {"molecular_target": "M44-modified D NTAA target peptides", "assay": "encoding assay; P2 Y"}, "[40]": {"molecular_target": "M44-modified E NTAA target peptides", "assay": "encoding assay; P2 Y"}, "[41]": {"molecular_target": "M44-modified F NTAA target peptides (M44-F-P2-peptide)", "assay": "encoding assay; P2 Y"}, "[42]": {"molecular_target": "M44-modified G NTAA target peptides (M44-G-P2-peptide)", "assay": "encoding assay; P2 Y"}, "[43]": {"molecular_target": "M44-modified H NTAA target peptides", "assay": "encoding assay; P2 Y"}, "[44]": {"molecular_target": "M44-modified I NTAA target peptides (M44-I-P2-peptide)", "assay": "encoding assay; P2 Y"}, "[45]": {"molecular_target": "M44-modified L NTAA target peptides (M44-L-P2-peptide)", "assay": "encoding assay; P2 Y"}, "[46]": {"molecular_target": "M44-modified M NTAA target peptides", "assay": "encoding assay; P2 Y"}, "[47]": {"molecular_target": "M44-modified N NTAA target peptides", "assay": "encoding assay; P2 Y"}, "[48]": {"molecular_target": "M44-modified P NTAA target peptides", "assay": "encoding assay; P2 Y"}, "[49]": {"molecular_target": "M44-modified T NTAA target peptides", "assay": "encoding assay; P2 Y"}, "[50]": {"molecular_target": "M44-modified W NTAA target peptides", "assay": "encoding assay; P2 Y"}, "[51]": {"molecular_target": "M44-modified Y NTAA target peptides (M44-Y-P2-peptide)", "assay": "encoding assay; P2 Y"}},
  "data": [
    {"binder": "B1", "values": [
      {"measurement": "encoding yield", "setting": "[1]", "value": 0.06},
      {"measurement": "encoding yield", "setting": "[2]", "value": 0.04},
      {"measurement": "encoding yield", "setting": "[3]", "value": 0.31},
      {"measurement": "encoding yield", "setting": "[4]", "value": 0.03},
      {"measurement": "encoding yield", "setting": "[5]", "value": 0.04},
      {"measurement": "encoding yield", "setting": "[6]", "value": 0.03},
      {"measurement": "encoding yield", "setting": "[7]", "value": 0.1},
      {"measurement": "encoding yield", "setting": "[8]", "value": 0.04},
      {"measurement": "encoding yield", "setting": "[9]", "value": 0.07},
      {"measurement": "encoding yield", "setting": "[10]", "value": 0.05},
      {"measurement": "encoding yield", "setting": "[11]", "value": 0.09},
      {"measurement": "encoding yield", "setting": "[12]", "value": 0.03},
      {"measurement": "encoding yield", "setting": "[13]", "value": 0.02},
      {"measurement": "encoding yield", "setting": "[14]", "value": 0.03},
      {"measurement": "encoding yield", "setting": "[15]", "value": 0.18},
      {"measurement": "encoding yield", "setting": "[16]", "value": 0.25},
      {"measurement": "encoding yield", "setting": "[17]", "value": 0.13},
      {"measurement": "encoding yield", "setting": "[18]", "value": 0.03},
      {"measurement": "encoding yield", "setting": "[19]", "value": 0.05},
      {"measurement": "encoding yield", "setting": "[20]", "value": 0.37},
      {"measurement": "encoding yield", "setting": "[21]", "value": 0.02},
      {"measurement": "encoding yield", "setting": "[22]", "value": 0.03},
      {"measurement": "encoding yield", "setting": "[23]", "value": 0.02},
      {"measurement": "encoding yield", "setting": "[24]", "value": 0.16},
      {"measurement": "encoding yield", "setting": "[25]", "value": 0.03},
      {"measurement": "encoding yield", "setting": "[26]", "value": 0.03},
      {"measurement": "encoding yield", "setting": "[27]", "value": 0.18},
      {"measurement": "encoding yield", "setting": "[28]", "value": 0.04},
      {"measurement": "encoding yield", "setting": "[29]", "value": 0.05},
      {"measurement": "encoding yield", "setting": "[30]", "value": 0.02},
      {"measurement": "encoding yield", "setting": "[31]", "value": 0.04},
      {"measurement": "encoding yield", "setting": "[32]", "value": 0.27},
      {"measurement": "encoding yield", "setting": "[33]", "value": 0.11},
      {"measurement": "encoding yield", "setting": "[34]", "value": 0.15},
      {"measurement": "encoding yield", "setting": "[35]", "value": 0.02},
      {"measurement": "encoding yield", "setting": "[36]", "value": 0.07},
      {"measurement": "encoding yield", "setting": "[37]", "value": 0.04},
      {"measurement": "encoding yield", "setting": "[38]", "value": 0.29},
      {"measurement": "encoding yield", "setting": "[39]", "value": 0.04},
      {"measurement": "encoding yield", "setting": "[40]", "value": 0.02},
      {"measurement": "encoding yield", "setting": "[41]", "value": 0.04},
      {"measurement": "encoding yield", "setting": "[42]", "value": 0.08},
      {"measurement": "encoding yield", "setting": "[43]", "value": 0.07},
      {"measurement": "encoding yield", "setting": "[44]", "value": 0.11},
      {"measurement": "encoding yield", "setting": "[45]", "value": 0.1},
      {"measurement": "encoding yield", "setting": "[46]", "value": 0.06},
      {"measurement": "encoding yield", "setting": "[47]", "value": 0.03},
      {"measurement": "encoding yield", "setting": "[48]", "value": 0.03},
      {"measurement": "encoding yield", "setting": "[49]", "value": 0.1},
      {"measurement": "encoding yield", "setting": "[50]", "value": 0.05},
      {"measurement": "encoding yield", "setting": "[51]", "value": 0.04}
    ]}
  ]
}
